Assay results as given in patent US12564600B2, “System for enhancing therapeutic compliance of the anti-cancer compound E7766” (Eisai R&D Management Co., Ltd., priority 2019, dated 2026).

Substrate: O=[P@]1(S)OC[C@H]2OC3[C@H](F)[C@@H]2O[P@](=O)(S)OC[C@H]2O[C@H]([C@H](F)[C@@H]2O1)n1cnc2c(ncnc21)NC/C=C/CNc1ncnc2c1ncn23
Experiment: Uptake in HEK293 cells overexpressing OATP1B1
Format: in vitro ADME, human
Settings: other: Simcyp input parameter, Table 3; 37.0 °C
Procedure: TransportoCells™ (Corning, N.Y., USA) expressing OATP2B1, NTCP, and HEK293-FT cells stably transfected with the vector containing OATP1B1 cDNA or OATP1B3 cDNA or empty vector were grown in a Dulbecoo's modified Eagle's medium fortified with 10% fetal calf serum and 2 mmol/L sodium butyrate (for NTCP only) in a humidified incubator at 37° C. and 5% CO2. Cells were harvested at 90% confluence and then seeded in poly-D-lysine-coated 24-well 24 h prior to transporter assay. Cells were washed twice and pre-incubated with 200 μL of pre-warmed Krebs-Henseleit buffer. After pre-incubation, cells were incubated with 3 or 10 μmol L-1 of Compound 1 in presence or absence of 100 μmol L-1 of inhibitors (Rifamycin SV for OATP2B1, Troglitazone for NTCP, Rifamycin for OATP1B1 and OATP1B3). The transport reaction was terminated by aspirating the buffer from the wells at designated time. After washing three times with 200 μL of ice-cold Krebs-Henseleit buffer, the cells were lysed and the resulting cellular lysates were analyzed by LC-MS/MS.
Concentration-dependent uptake of Compound 1 via OATP1B1 and OATP1B3 were conducted with a concentration range of 0.25-100 μmol L-1 under linear uptake. All experiments were run in triplicates.

B1: OATP1B1 (Homo sapiens) (protein)
chain: MDQNQHLNKTAEAQPSENKKTRYCNGLKMFLAALSLSFIAKTLGAIIMKSSIIHIERRFEISSSLVGFIDGSFEIGNLLVIVFVSYFGSKLHRPKLIGIGCFIMGIGGVLTALPHFFMGYYRYSKETNINSSENSTSTLSTCLINQILSLNRASPEIVGKGCLKESGSYMWIYVFMGNMLRGIGETPIVPLGLSYIDDFAKEGHSSLYLGILNAIAMIGPIIGFTLGSLFSKMYVDIGYVDLSTIRITPTDSRWVGAWWLNFLVSGLFSIISSIPFFFLPQTPNKPQKERKASLSLHVLETNDEKDQTANLTNQGKNITKNVTGFFQSFKSILTNPLYVMFVLLTLLQVSSYIGAFTYVFKYVEQQYGQPSSKANILLGVITIPIFASGMFLGGYIIKKFKLNTVGIAKFSCFTAVMSLSFYLLYFFILCENKSVAGLTMTYDGNNPVTSHRDVPLSYCNSDCNCDESQWEPVCGNNGITYISPCLAGCKSSSGNKKPIVFYNCSCLEVTGLQNRNYSAHLGECPRDDACTRKFYFFVAIQVLNLFFSALGGTSHVMLIVKIVQPELKSLALGFHSMVIRALGGILAPIYFGALIDTTCIKWSTNNCGTRGSCRTYNSTSFSRVYLGLSSMLRVSSLVLYIILIYAMKKKYQEKDINASENGSVMDEANLESLNKNKHFVPSAGADSETHC
notes: expressed in transfected cells; host or cells: HEK293-FT
- Km: 2.200 µM
